The target of data set [1] is T1, CatS on the cell surface of HCT116 cells (Homo sapiens, UniProt P25774).
T1 construct: CatS expression is localised to the cell surface on HCT116 cells; endogenous in cells; host or cells: HCT116
Briefly: flow cytometry staining of HCT116 cells with CatS monoclonal antibody. Type of data set: binding. The note with it: HCT116 cells stained for CatS. Here is the method: Cells were collected from tissue culture plates using a scraper and washed ×3 in PBS (0.01% tween) (5 minute centrifugation at 1500 rpm). Approximately 5×10^5 cells were placed in appropriately labelled tubes. Cells were incubated with 50 μl anti-CatS or Isotype control (Sigma, UK) for 1 hour at room temperature. Following incubation each tube was washed ×3 in PBS (0.01% tween) (5 minute centrifugation at 1500 rpm). Samples were then incubated with a 1 in 15 dilution of FITC-conjugated goat anti-mouse secondary antibody (Sigma, UK) (samples kept in dark at room temperature). Following incubation each tube was washed ×3 in PBS (0.01% tween) (5 minute centrifugation at 1500 rpm). Samples were resuspended in 0.5 ml of PBS prior to immediate analysis using the Cyan flow cytometer (Dako, UK).
HCT116 cells were stained for CatS expression using a CatS monoclonal antibody as before. Cells were grown on glass coverslips, fixed using ice-cold acetone and incubated with CatS antibody at a 1:100 dilution. Coverslips were rinsed with PBS and incubated with antimouse AlexaFluor® 488 labelled secondary antibody. Coverslips were washed again using PBS, mounted using PermaFluor mounting media and visualised by confocal microscopy.
The presence of Cathepsin S on the cell surface of tumour cells was further confirmed using confocal microscopy. […]

The target in data set [2] is T2, CatS (Homo sapiens, UniProt P25774). In words: fluorimetric assay of CatS proteolytic activity. The class given is biochemical. The source says: The ability of an agent, for example a small molecule or antibody, to inhibit the proteolytic activity of Cathepsin S may be tested using any suitable method. For example a fluorimetric assay may be used. In such an assay, any suitable fluorigenic substrate may be used, for example Cbz-Phe-Arg-AMC. An agent is considered to inhibit the proteolytic activity of Cathepsin S if it has the ability to inhibit its activity by a statistically significant amount. For example, in one embodiment, an agent for use as the Cathepsin S inhibitor is able to inhibit the […] activity by at least 10%, for example at least 25%, 50%, 70%, 80% or 90%, when compared to an appropriate control antibody.
T2 sequence (P25774 115-331): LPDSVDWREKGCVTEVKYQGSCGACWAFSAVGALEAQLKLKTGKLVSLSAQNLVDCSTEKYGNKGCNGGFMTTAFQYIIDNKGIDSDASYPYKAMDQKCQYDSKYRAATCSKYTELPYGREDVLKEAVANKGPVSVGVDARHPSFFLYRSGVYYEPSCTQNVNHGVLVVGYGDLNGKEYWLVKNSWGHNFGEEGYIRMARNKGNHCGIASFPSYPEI
As shown in co-pending PCT application WO2006/109045, the contents of which are incorporated herein by reference, which claims priority from GB0507219.4 and GB0507272.3, this antibody has potent inhibitory activity.
(§1) The F47 Cathepsin S 1C11 1E11 1E4 cell line which is the hybridoma cell line that produces the IE4 antibody has been deposited with the European Collection of Cell Cultures (“ECACC”) under Accession No. 15072905.

Data set [3] concerns human microvascular endothelial cells (HMECs). Briefly: Matrigel capillary-like tube formation assay. The class given is cell-based. Here is the method:
The effect of the CatS mAb on endothelial cell tube formation was assessed as follows. Two hundred microliter of Matrigel (10 mg/ml) was applied to pre-cooled 48-well plates, incubated for 10 min at 4° C. and then allowed to polymerize for 1 h at 37° C. Cells were suspended in endothelial growth cell medium MV (Promocell), containing 200 nM of the appropriate antibody. Five hundred microliter (1×10^5 cells) were added to each well. As controls, cells were incubated with vehicle-only control medium containing the appropriate volumes of PBS. After 24 h incubation at 37° C. and 5% CO2, cells were viewed using a Nikon Eclipse TE300 microscope.
Using the Matrigel morphogenesis assay described by Grant et al (Cell 1989 Sep. 8; 58 (5): 933-43), capillary-tubule formation assays were performed with human microvascular endothelial cells (HMECs) cultured on Matrigel enabling the endothelial cells form tube-like structures, with invasive sprouts extending from individual cells to form contacts with nearby endothelial cells. FIG. 15a illustrates the results when the HMEC cells were cultured in the presence of two CatS antibodies (1E11 and 1E4) or isotype control.

A further data set deals with other cathepsins. In words: binding specificity / cross-reactivity with other cathepsins. The note with it: in particular those with the greatest homology to CatS.
Description: as §1

The subject of data set [4] is HCT116+/+ human colorectal adenocarcinoma xenograft. In words: HCT116+/+ xenograft model, immunohistochemistry of tumour sections. Type of data set: in vivo, SCID mice. The note with it: CatS 1E11+5Fu (IC50) vs Mouse IgG1+5-Fu control.
Description: Briefly, sections were deparaffinised by passing from xylene to alcohol to running water. Endogenous peroxidase activity was blocked by incubation in 3% H2O2 in methanol for 10 min. Sections were then boiled in citrate buffer, pH6.0, for 22 min. Incubation in 5% normal horse serum blocking solution was carried out for 20 min at room temp. Sections were incubated with primary antibody at 4° C. overnight. Appropriate isotype controls were used at the same dilutions as primary antibodies. […]
Data set [5] can be described thus: examination of major mouse organs after treatment in xenograft model. Type of data set: in vivo, SCID mice. On the procedure: 6-8 week old female SCID mice were implanted with 2×10^6 HCT116+/+ human colorectal adenocarcinoma cells into each flank. […] They were mixed with equal volumes of matrigel to give a final concentration of 5×10^6 cells/ml. Mice were randomly separated into treatment groups on day 5 after implantation and treated with various regimes of CatS Mab or Isotype control Mab (10 mg/kg) with/without 5Fu (15 mg/kg daily or 70 mg/kg twice weekly). All drugs were administered through a bolus injection. Animals were sacrificed at various time points and tumours were removed for analysis.
Paraffin embedding of formalin-fixed xenograft/organ tissue samples, section cutting and H&E (haematoxylin and eosin) staining of tissue sections were performed as previously described. Immunostaining was performed using the avidin-horseradish peroxidase method (Vectorlabs ABC Kit).
All major mouse organs were examined for architectural changes following treatment.

The subject of the next data set is rat aortic ring segments. Briefly: ex vivo rat aortic arch (ring) assay in Matrigel. The class given is cell-based. On the procedure:
Male Wistar rats are euthanised and the thoracic aorta is aseptically removed and sectioned into […] thick rings. The rings are washed ten times in sterile medium to remove any bacteria and embedded into Matrigel on 24 well plates. The wells are supplemented with 2 ml of medium and increasing concentrations of antibodies. The plate is incubated for 8 days and post incubation the Matrigel and rings are fixed in 4% PBS buffered paraformaldehyde and stored in PBS. The extent of vessel development is blindly assessed microscopically by an independent investigator and quantified using a calibrated eyepiece graticule (1 mm/100 μm graduation) at 20× magnification (Olympus BX 50). The extent of vessel length, maximum vessel length and number of vessels in each field of view is measured and compared to time matched sham controls and the % inhibition calculated.
To evaluate further the role of CatS in angiogenesis, an ex vivo rat aortic arch assay was performed. Sections of the aorta (1 mm) were cultured within a thin layer of Matrigel in the presence of the inhibitory antibody and appropriate controls. The formation of tube-like vessels from the aorta were monitored and quantified after 7 days by measuring the reduction in the number of vessels, mean vessel length and maximum vessel length compared to controls.

Data set [6] addresses T2, CatS. The note with it: fluorigenic substrate; shown in co-pending WO2006/109045; cited from earlier work.
For data set [7], the system named is PC3 prostate carcinoma cell line. The note with it: shown in co-pending WO2006/109045; cited from earlier work.
Data set [8] relates to U251mg astrocytoma cell line. The note with it: shown in co-pending WO2006/109045; cited from earlier work.
The subject of data set [9] is HCT116 colorectal carcinoma cell line. The note with it: shown in co-pending WO2006/109045; cited from earlier work.
The subject of data set [10] is MDMB231 breast cancer cell line. The note with it: shown in co-pending WO2006/109045; cited from earlier work.
Data set [11] has as its system MCF 7 breast cancer cell line. The note with it: shown in co-pending WO2006/109045; cited from earlier work.
Where [12] appears, read: repeat experiment, up to 10 μg/ml.

T1 sequence (P25774 115-331): as above

B1: 1E11: Cathepsin S inhibitory monoclonal antibody; VH Seq ID No: 7, VL Seq ID No: 8, CDRs Seq ID Nos: 1-6 (antibody, listed as Mus musculus, V domains shown)
VH: VQLQESGGVLVKPGGSLKLSCAASGFAFSSYDMSWVRQTPEKRLEWVAYITTGGVNTYYPDTVKGRFTISRDNAKNTLYLQMSSLKSEDTAMYYCARHSYFDYWGQGTTVTVSS
VL: DVLMTQTPLSLPVSLGDQASISCRSSQSLVHSNGNTYLHWYLQKPGQSPKLLIYKVSNRFSGVPDRFSGSGSGTDFTLKISRVEAEDLGVYFCSQTTHVPPTFGSGTKLEIKR
modifications: VH domain amino acid sequence; VL domain amino acid sequence
Regarding B1, the “increase in fluorescent intensity in comparison to the isotype control” value in data set [1] is 38%. Moreover, the “ability to inhibit the catalytic activity of CatS” value with CatS [2] is given as “can specifically inhibit the activity of CatS”. In addition, in data set [3] (antibody 200 nM, 24 h, vs vehicle-only and isotype control), the “tube formation of HMEC cells on Matrigel” value is “almost completely abolished”. Further, the “capillary tubule formation in Matrigel assay” value in data set [3] (summary statement, no concentration given) was “inhibit capillary tubule formation”. For the same molecule, the “cross-reactivity with other cathepsins” value with other cathepsins is recorded as “no cross-reactivity with other cathepsins”. In addition, the “caspase 3 activity in tumour tissue (anti-cleaved caspase-3 staining)” value in data set [4] is “increase in caspase 3 activity”. Moreover, the “architectural / pathological change of major mouse organs” value in [5] (nine-day drug regime CatS 1E11+5Fu (IC50)) is “No signs of pathological change”. In addition, the adverse toxic effect result in data set [5] (repeated treatment with 10 mg/kg in combination with chemotherapy) is “no adverse toxic effect”. For the same molecule, the “reduction in maximum vessel length” value is reported as 60% in the data set on rat aortic ring segments (setting [12]) and “greater than 80%” with rat aortic ring segments (up to 600 nM). The “reduction in mean vessel length” value with rat aortic ring segments (setting [12]) is 60%; in the data set with rat aortic ring segments (up to 600 nM), “greater than 80%”. Also, the “reduction in total vessel number” value is reported as 70% with rat aortic ring segments (setting [12]) and “greater than 80%” in the data set on rat aortic ring segments (up to 600 nM). Also, in the data set with CatS [6], the “inhibition of proteolytic activity of CatS” value is “inhibits the proteolytic activity of CatS”. Further, the “inhibition of tumour cell invasion” value in data set [7], in data set [8], in [9], in [10] and in data set [11] was “potently inhibit tumour cell invasion” in each case.

Source of the values: patent publication US9321838B2, “Therapy targeting cathepsin S” (Fusion Antibodies Limited, priority 2006, dated 2016).
